According to the supplement of paper PMC6757056:
± gives the standard deviation of the averaged measurements.

B1: library; a variant is named by its letters at N, in order (parent)
chain: GCUGUCACCGGUGUAUUACCCUAGUGGUCGACCGGUCUGAUGAGUCUNNNNNNAGACGAAACAGC

What was measured:
hypoxanthine [1] = variants of: B1; experiment: FACS-Seq fitted mean relative fluorescence mCherry/BFP without ligand (log10 relative fluorescence); ligand: hypoxanthine (xanthine aptamer); higher = higher reporter protein expression; conditions: HEK293T, ligand present: no
In short: (§1)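 Fluorescence figures are normalized fitted normal means of sequenced bin counts. Enriched, lentivirally transduced HEK293T libraries with a ribozyme-switch mCherry reporter and EF1α-BFP were held 48 h with or without ligand, then sorted into 6 mCherry/BFP bins. PCR-amplified, barcoded genomic DNA from each bin was sequenced on MiSeq. Means of log10(mCherry/BFP) were scaled to five spiked-in control ribozymes.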

hypoxanthine [2] = variants of: B1; experiment: normalized RNA/DNA level with ligand (relative to sTRSVctl = 100) (log10 (% of sTRSVctl)); ligand: hypoxanthine (xanthine aptamer); higher = less ribozyme self-cleavage, higher mRNA level; conditions: ligand concentration (+) RNA-Seq: 5 mM, HEK293T, reporter: mCherry (pCS4076), ligand present: yes
In short: (§2)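 Ribozyme switch library plasmids with mCherry reporters (eGFP in certain ligand experiments) went into HEK293T cells at 4 µg per 6-well well. Where ligand was used, it was applied 1 h before transfection, and total RNA was extracted with EDTA 72 h later for reverse transcription, amplification, barcoding and sequencing. RNA level is the RNA-to-DNA read ratio normalized to a spiked-in non-cleaving sequence or to the leading sequences, then scaled and log-transformed. Scaling was ×100 with log10, the leading set comprised 25 sequences, and the cutoff was ≥100 DNA reads.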

hypoxanthine [3] = variants of: B1; experiment: normalized RNA/DNA level without ligand (relative to sTRSVctl = 100) (log10 (% of sTRSVctl)); ligand: hypoxanthine (xanthine aptamer); higher = less ribozyme self-cleavage, higher mRNA level; conditions: HEK293T, reporter: mCherry (pCS4076), ligand present: no
In short: as §2

hypoxanthine [4] = variants of: B1; experiment: FACS-Seq fitted mean relative fluorescence mCherry/BFP with ligand (log10 relative fluorescence); ligand: hypoxanthine (xanthine aptamer); ligand concentration (+) FACS-Seq: 5 mM; higher = higher reporter protein expression; conditions: HEK293T, ligand present: yes
In short: as §1

| Variant | FACS-Seq fitted mean (log10) (hypoxanthine [1]) | normalized RNA/DNA level with ligand (log10) (hypoxanthine [2]) | normalized RNA/DNA level without ligand (log10) (hypoxanthine [3]) | FACS-Seq fitted mean (log10) (hypoxanthine [4]) |
| --- | --- | --- | --- | --- |
| GUGCUG | 0.44 ± 0.068 | 1.914 ± 0.019 | 1.58 ± 0.025 | 0.542 ± 0.054 |
| GUGAUG | 0.204 ± 0.049 | 1.81 ± 0.038 | 1.34 ± 0.019 | 0.686 ± 0.037 |
| UUGAGC | 0.0741 ± 0.098 | 1.977 ± 0.003 | 1.89 ± 0.025 | 0.129 ± 0.018 |
| UUGAGG | 0.402 ± 0.054 | 1.98 ± 0.027 | 1.7199 ± 0.00097 | 0.578 ± 0.02 |
| UUGAGA | 0.452 ± 0.082 | 1.96 ± 0.015 | 1.53 ± 0.067 | 0.649 ± 0.057 |
| CUCGAU | 0.5204 ± 0.0026 | 1.93 ± 0.017 | 1.83 ± 0.081 | 0.642 ± 0.061 |
| CUCGAA | 0.449 ± 0.073 | 1.92 ± 0.068 | 1.75 ± 0.037 | 0.395 ± 0.041 |
| CUCGGG | 0.547 ± 0.055 | 1.923 ± 0.0029 | 1.657 ± 0.0028 | 0.46 ± 0.0048 |
| CUCGGU | -0.663 ± 0.081 | 1.94 ± 0.022 | 1.85 ± 0.041 | -0.785 ± 0.082 |
| CUCGGC | 0.2237 ± 0.00057 | 1.97 ± 0.12 | 1.92 ± 0.093 | 0.24 ± 0.018 |
| CUGCAG | 0.429 ± 0.068 | 1.96 ± 0.02 | 1.73 ± 0.066 | 0.677 ± 0.016 |
| AUCUUG | 0.269 ± 0.0029 | 1.846 ± 0.015 | 1.59 ± 0.039 | 0.48 ± 0.04 |
| GUGAAG | 0.168 ± 0.0046 | 1.73 ± 0.0073 | 1.15 ± 0.072 | 0.591 ± 0.023 |
| UUGAAA | 0.426 ± 0.1 | 1.953 ± 0.0063 | 1.77 ± 0.044 | 0.614 ± 0.07 |
| UUGAAG | 0.35 ± 0.06 | 1.93 ± 0.077 | 1.64 ± 0.059 | 0.6894 ± 0.0024 |
| GUGGGA | -0.0656 ± 0.016 | 1.9229 ± 0.0017 | 1.68 ± 0.053 | 0.178 ± 0.067 |
| GUGGGG | 0.0309 ± 0.01 | 1.841 ± 0.016 | 1.45 ± 0.029 | 0.399 ± 0.07 |
| GUGGGU | 0.152 ± 0.061 | 1.94 ± 0.021 | 1.79 ± 0.018 | 0.626 ± 0.031 |
| CUUAAC | 0.554 ± 0.03 | 1.89 ± 0.059 | 1.82 ± 0.036 | 0.637 ± 0.05 |
| UUGACA | 0.459 ± 0.015 | 1.95 ± 0.046 | 1.87 ± 0.026 | 0.491 ± 0.048 |
| UUGACG | 0.486 ± 0.025 | 1.93 ± 0.057 | 1.831 ± 0.0085 | 0.5104 ± 0.00062 |
| AUCGCC | 0.477 ± 0.12 | 1.95 ± 0.028 | 1.91 ± 0.034 | -0.391 ± 0.0099 |
| CUGAAG | 0.454 ± 0.056 | 1.92 ± 0.045 | 1.59 ± 0.032 | 0.669 ± 0.026 |
| CUGAAA | 0.56 ± 0.015 | 1.93 ± 0.027 | 1.74 ± 0.018 | 0.587 ± 0.036 |

| Variant | FACS-Seq fitted mean (log10) (hypoxanthine [1]) | normalized RNA/DNA level with ligand (log10) (hypoxanthine [2]) | normalized RNA/DNA level without ligand (log10) (hypoxanthine [3]) | FACS-Seq fitted mean (log10) (hypoxanthine [4]) |
| --- | --- | --- | --- | --- |
| GUGCGU | 0.221 ± 0.019 | 1.972 ± 0.018 | 1.71 ± 0.044 | 0.479 ± 0.04 |
| GUGCGG | 0.103 ± 0.016 | 1.88 ± 0.033 | 1.38 ± 0.081 | 0.585 ± 0.033 |
| AUCCUG | 0.0565 ± 0.03 | 1.944 ± 0.013 | 1.54 ± 0.086 | 0.437 ± 0.048 |
| AUCCUC | -0.169 ± 0.0024 | 2.021 ± 0.0097 | 1.97 ± 0.04 | -0.394 ± 0.056 |
| GUGACU | -0.666 ± 0.018 | 1.92 ± 0.02 | 1.88 ± 0.049 | -0.229 ± 0.049 |
| GUGACG | 0.259 ± 0.081 | 1.828 ± 0.0026 | 1.37 ± 0.044 | 0.523 ± 0.031 |
| AUGGGA | 0.29 ± 0.013 | 1.89 ± 0.043 | 1.56 ± 0.08 | 0.592 ± 0.042 |
| GUGGAA | 0.0876 ± 0.0021 | 1.88 ± 0.031 | 1.61 ± 0.0033 | -0.0768 ± 0.16 |
| GUGGAU | 0.3032 ± 0.0022 | 1.917 ± 0.019 | 1.74 ± 0.05 | 0.467 ± 0.024 |
| UUCGGU | 0.323 ± 0.015 | 1.93 ± 0.044 | 1.78 ± 0.036 | 0.492 ± 0.007 |
| AUGCGG | -0.0506 ± 0.036 | 1.752 ± 0.0084 | 1.31 ± 0.12 | 0.504 ± 0.014 |
| AUGCGA | 0.0429 ± 0.015 | 1.89 ± 0.076 | 1.556 ± 0.0057 | 0.395 ± 0.06 |
| AUGACA | 0.303 ± 0.11 | 1.909 ± 0.013 | 1.8 ± 0.021 | 0.344 ± 0.049 |
| AUGACG | 0.0397 ± 0.012 | 1.807 ± 0.0069 | 1.354 ± 0.011 | 0.3727 ± 0.0035 |
| AUUACG | 0.368 ± 0.015 | 1.84 ± 0.066 | 1.397 ± 0.00039 | 0.626 ± 0.068 |
| AUUACA | 0.157 ± 0.076 | 1.91 ± 0.033 | 1.776 ± 0.0047 | 0.407 ± 0.0063 |
| UUGAUA | 0.161 ± 0.022 | 1.93 ± 0.047 | 1.806 ± 0.01 | 0.277 ± 0.015 |
| GUGGCG | 0.283 ± 0.0056 | 1.94 ± 0.02 | 1.608 ± 0.011 | 0.342 ± 0.023 |
| GUGCCG | 0.6409 ± 0.0059 | 1.912 ± 0.0077 | 1.55 ± 0.025 | 0.557 ± 0.12 |
| CUGUGG | 0.575 ± 0.018 | 1.91 ± 0.027 | 1.45 ± 0.089 | 0.842 ± 0.073 |
| CUGAUA | 0.486 ± 0.026 | 1.877 ± 0.003 | 1.7 ± 0.055 | 0.601 ± 0.13 |
| AUGCCA | 0.0727 ± 0.02 | 1.91 ± 0.07 | 1.821 ± 0.018 | 0.158 ± 0.03 |
| UUCGAA | 0.708 ± 0.021 | 1.938 ± 0.0037 | 1.7 ± 0.045 | 0.716 ± 0.059 |
| UUCGAU | 0.164 ± 0.024 | 1.88 ± 0.019 | 1.767 ± 0.00052 | 0.303 ± 0.0063 |

| Variant | FACS-Seq fitted mean (log10) (hypoxanthine [1]) | normalized RNA/DNA level with ligand (log10) (hypoxanthine [2]) | normalized RNA/DNA level without ligand (log10) (hypoxanthine [3]) | FACS-Seq fitted mean (log10) (hypoxanthine [4]) |
| --- | --- | --- | --- | --- |
| GUGUAU | 0.314 ± 0.018 | 1.91 ± 0.056 | 1.737 ± 0.017 | 0.33 ± 0.021 |
| GUGUAA | 0.291 ± 0.061 | 1.85 ± 0.024 | 1.67 ± 0.049 | 0.495 ± 0.043 |
| GUGUAG | 0.19 ± 0.04 | 1.76 ± 0.022 | 1.17 ± 0.065 | 0.6252 ± 0.0039 |
| CUGAGG | 0.424 ± 0.071 | 1.91 ± 0.03 | 1.58 ± 0.025 | 0.466 ± 0.031 |
| CUGAGA | 0.665 ± 0.033 | 1.93 ± 0.036 | 1.77 ± 0.058 | 0.753 ± 0.0013 |
| GUGAGC | 0.0785 ± 0.015 | 1.731 ± 0.017 | 1.15 ± 0.016 | 0.6585 ± 0.0046 |
| GUGAGG | 0.174 ± 0.029 | 1.7 ± 0.039 | 1.2 ± 0.026 | 0.598 ± 0.051 |
| GUGAGA | -0.285 ± 0.036 | 1.86 ± 0.025 | 1.5664 ± 0.0011 | -0.146 ± 0.2 |
| AUCUGG | 0.338 ± 0.0078 | 1.84 ± 0.023 | 1.426 ± 0.0099 | 0.609 ± 0.05 |
| AUCUGA | 0.724 ± 0.047 | 1.96 ± 0.049 | 1.83 ± 0.045 | 0.684 ± 0.016 |
| UUCUGG | 0.955 ± 0.026 | 1.931 ± 0.0039 | 1.8 ± 0.023 | 0.764 ± 0.068 |
| AUGAUG | -0.144 ± 0.025 | 1.794 ± 0.0069 | 1.32 ± 0.027 | 0.458 ± 0.12 |
| AUGAUA | -0.373 ± 0.027 | 1.9 ± 0.036 | 1.736 ± 0.013 | -0.00691 ± 0.00025 |
| UUCGUA | 0.252 ± 0.0058 | 1.93 ± 0.064 | 1.87 ± 0.026 | 0.384 ± 0.035 |
| UUCGCA | 0.4682 ± 0.0031 | 1.95 ± 0.051 | 1.86 ± 0.067 | 0.512 ± 0.038 |
| CUGUUA | 0.263 ± 0.085 | 1.95 ± 0.057 | 1.66 ± 0.027 | 0.493 ± 0.053 |
| AUGUGU | -0.337 ± 0.023 | 1.86 ± 0.02 | 1.53 ± 0.059 | 0.155 ± 0.022 |
| AUGUGA | 0.242 ± 0.018 | 1.849 ± 0.0086 | 1.56 ± 0.1 | 0.68 ± 0.028 |
| AUGUGG | -0.193 ± 0.082 | 1.756 ± 0.0083 | 1.27 ± 0.11 | -0.0634 ± 0.1 |
| AUGAAG | -0.113 ± 0.019 | 1.73 ± 0.031 | 1.13 ± 0.053 | 0.639 ± 0.0078 |
| AUGAAC | 0.618 ± 0.07 | 1.9 ± 0.025 | 1.73 ± 0.025 | 0.583 ± 0.02 |
| AUGAAU | 0.418 ± 0.023 | 1.907 ± 0.01 | 1.66 ± 0.027 | 0.644 ± 0.066 |
| AUGAAA | 0.631 ± 0.058 | 1.87 ± 0.021 | 1.7 ± 0.033 | 0.625 ± 0.011 |
